What all share (type): cell-based, human
Data set [1] has as its system StopFluc luciferase reporter gene in HEK293FT cells. Nature of the data set: luciferase-based HDR (Homology-directed repair) assay of Cas9 endonuclease activity. The source says: For constructing a luciferase reporter for detecting Cas9 endonuclease activity, the sequence encoding firefly luciferase (Fluc) was amplified from pGL4.31 vector (Promega). The firefly luciferase with an in-flamed stop codon (StopFluc) was produced by an overlapping PCR extension method. The primer (5′-[…]-3′: SEQ ID No: 40) was used for PCR. The Stop-Fluc construct was inserted into the HindII-XhoI site of pcDNA 3.1/V 5-HisA having the CMV promoter. A luciferase donor vector was constructed by inserting the reverse firefly luciferase sequence into the XhoI and HindIII site of the bacterial expression pCold-I vector (Clontech), and was used as donor DNA.
HEK293T cells (American Type Culture Collection: ATCC) were cultured at 37° C. under 5% CO2 in Dulbecco's Modified Eagle Medium (DMEM: Thermo Fisher Scientific) supplemented with 10% fetal bovine serum (FBS: Thermo Fisher Scientific), 100 units/ml of penicillin and 100 μg/ml of streptomycin (Thermo Fisher Scientific) and 2 mM GlutaMAX (Thermo Fisher Scientific).
For luciferase assay, HEK 293 cells were plated at 25,000 cells per well on a 96-well flat clear-bottom microplate (Greiner Bio-One), and were then cultured for 24 hours at 37° C. in 5% CO2. The cells were transfected with cDNAs encoding destabilized Cas9 or an empty vector (negative control) along with the luciferase reporter (StopFluc), donor DNA (Fluc) and Cas9 encoding gRNA, using Lipofectamine 3000 (Thermo Fisher Scientific) at 37° C. The total amount of DNA was 50 ng per well. The transfection ratio of the destabilized Cas9, the luciferase reporter, the donor DNA, and the gRNA was set to be equal (1:1:1:1). […] Bioluminescence measurement was performed for 1 second per well at room temperature using a Centro XS^3 LB 960 plate-reading luminometer (Berthold Technologies).
Full-length Cas9 was used as a positive control. […] Bioluminescence measurement was performed for 1 second per well at room temperature using a Centro XS^3 LB 960 plate-reading luminometer (Berthold Technologies).

In data set [2] the test system is Vlox sites (Floxed (Vlox)-STOP Fluc reporter) in HEK293 cells. Description: luciferase assay of VCre-Vlox DNA recombination in HEK293 cells. As to conditions: 5 ng plasmid, TMP 10 nM or 500 nM or DMSO, 24 or 48 hours. Here is the method: (§1) For constructing the luciferase reporters detecting for the activities of Flp-FRT recombinase, VCre-Vlox recombinase and Dre-rox recombinase, the FRT site ([…]: SEQ ID No: 37), the Vlox site ([…]: SEQ ID No: 38), the rox site ([…]: SEQ ID No: 39), were inserted into HindIII and KpnI sites and ClaI and EcoRI sites in the pcDNA3.1 (+) vector of the luciferase reporter (of loxP-stop-loxP-Fluc).
(§2) For luciferase assay, HEK 293 cells were plated at 25,000 cells per well on a 96-well flat white microplate (Thermo Fisher Scientific), and were then cultured for 24 hours at 37° C. in 5% CO2. The cells were transfected with cDNAs encoding destabilized Cre along with the luciferase reporter (loxP-stop-loxP Fluc), using X-tremeGENE9 reagent (Merck Millipore) at 37° C. The total amount of DNA was 50 ng per well. Twenty-four hours after the transfection, TMP or DMSO was added into the cells, and the cells were further cultured for 24 hours or 48 hours. Just before the luciferase assay, the medium was replaced with Hanks' balanced salt solution (HBSS) (Thermo Fisher Scientific) containing 0.2 mM D-luciferin potassium salt. Bioluminescence measurement was performed for 1 second per well at room temperature using a Centro XS^3 LB 960 plate-reading luminometer (Berthold Technologies).

Data set [3] concerns FRT sites (Floxed (FRT)-STOP Fluc reporter) in HEK293 cells. Nature of the data set: luciferase assay of Flp-FRT DNA recombination in HEK293 cells. As to conditions: 5 ng plasmid, 24 or 48 hours. The procedure: as §1, §2

As to “SPEED-Cas9: split spCas9 (a.a. 2-713 and 714-1,368) tagged with NZ/CZ leucine zippers and DD sequences, joined via P2A; SEQ ID No: 28”, the “background endonuclease activity in the absence of TMP” value in data set [1] (12.5 ng plasmid, DMSO, 48 hours) is recorded as “extremely low background level of endonuclease activity, comparable to that of the negative control group using the pcDNA3.1 empty vector plasmid”. Further, the TMP-dependent endonuclease activity entry in data set [1] (12.5 ng plasmid, TMP 500 nM, 48 hours) is listed as “extremely high TMP-dependent endonuclease activity”. The “TMP-dependent endonuclease activity compared with full-length Cas9” value in data set [1] (TMP 500 nM (FIGS. 9d and e)) was “comparable to that of full-length Cas9”.

B1: SPEED-VCre: split VCre (a.a. 2-277 and 278-380), single DD on the N-terminal and C-terminal sides; SEQ ID No: 20 (protein, listed as Vibrio parahaemolyticus)
chain: MVSKYPYDVPDYARSGGSGGMISLIAALAVDYVIGMENAMPWNLPADLAWFKRNTLNKPVIMGRHTWESIGRPLPGRKNIILSSQPSTDDRVTWVKSVDEAIAACGDVPEIMVIGGGRVIEQFLPKAQKLYLTHIDAEVEGDTHFPDYEPDDWESVFSEFHDADAQNSHSYCFEILERRGGSGGSGGKLVPKKKRKVGGIENQLSLLGDFSGVRPDDVKTAIQAAQKKGINVAENEQFKAAFEHLLNEFKKREERYSPNTLRRLESAWTCFVDWCLANHRHSLPATPDTVEAFFIERAEELHRNTLSVYRWAISRVHRVAGCPDPCLDIYVEDRLKAIARKKVREGEAVKQASPFNEQHLLKLTSLWYRSDKLLLRRNLALLAVAYESMLRASELANIRVSDMELAGDGTAILTIPITKTNHSGEPDTCILSQDVVSLLMDYTEAGKLDMSSDGFLFVGVSKHNTCIKPKKDKQTGSGSGATNFSLLKQAGDVEENPGPLEGEVLHKPITTKTVEGVFYSAWETLDLGRQGVKPFTAHSARVGAAQDLLKKGYNTLQIQQSGRWSSGAMVARYGRAILARDGAMAHSRVKTRSAPMQWGKDEKDGGSGGSGGMISLIAALAVDYVIGMENAMPWNLPADLAWFKRNTLNKPVIMGRHTWESIGRPLPGRKNIILSSQPSTDDRVTWVKSVDEAIAACGDVPEIMVIGGGRVIEQFLPKAQKLYLTHIDAEVEGDTHFPDYEPDDWESVFSEFHDADAQNSHSYCFEILERR
modifications: HAtag; DOMAIN 21..179 Degradation Domain; SIGNAL 190..197 Nuclear Localization Signal; MISC_FEATURE - N-terminal side of VCre; MISC_FEATURE - P2A; MISC_FEATURE - C-terminal side of VCre; DOMAIN 613..771 Degradation Domain
For B1, the “background and TMP-dependent DNA recombination activity” value in data set [2] is on record as “results similar to those of SPEED-Cre”.

B2: DD-Flp: Flp tagged with single DD; SEQ ID No: 15 (protein, listed as Saccharomyces cerevisiae)
chain: MVSKYPYDVPDYARSGGSGGMISLIAALAVDYVIGMENAMPWNLPADLAWFKRNTLNKPVIMGRHTWESIGRPLPGRKNIILSSQPSTDDRVTWVKSVDEAIAACGDVPEIMVIGGGRVIEQFLPKAQKLYLTHIDAEVEGDTHFPDYEPDDWESVFSEFHDADAQNSHSYCFEILERRGGSGGSGGKLVPKKKRKVGGSQFDILCKTPPKVLVRQFVERFERPSGEKIASCAAELTYLCWMITHNGTAIKRATFMSYNTIISNSLSFDIVNKSLQFKYKTQKATILEASLKKLIPAWEFTIIPYNGQKHQSDITDIVSSLQLQFESSEEADKGNSHSKKMLKALLSEGESIWEITEKILNSFEYTSRFTKTKTLYQFLFLATFINCGRFSDIKNVDPKSFKLVQNKYLGVIIQCLVTETKTSVSRHIYFFSARGRIDPLVYLDEFLRNSEPVLKRVNRTGNSSSNKQEYQLLKDNLVRSYNKALKKNAPYPIFAIKNGPKSHIGRHLMTSFLSMKGLTELTNVVGNWSDKRASAVARTTYTHQITAIPDHYFALVSRYYAYDPISKEMIALKDETNPIEEWQHIEQLKGSAEGSIRYPAWNGIISQEVLDYLSSYINRRI
modifications: MISC_FEATURE - HAtag; DOMAIN 21..179 Degradation Domain; MISC_FEATURE - Flp
On to B2, for which, in data set [3], the “background DNA recombination activity in the absence of TMP” value is on record as “high background DNA recombination activity comparable to full-length Flp”.

B3: SPEED-Flp: split Flp (a.a. 2-374 and 375-423), single DD on the N-terminal and C-terminal sides; SEQ ID No: 16 (protein, listed as Saccharomyces cerevisiae)
chain: MVSKYPYDVPDYARSGGSGGMISLIAALAVDYVIGMENAMPWNLPADLAWFKRNTLNKPVIMGRHTWESIGRPLPGRKNIILSSQPSTDDRVTWVKSVDEAIAACGDVPEIMVIGGGRVIEQFLPKAQKLYLTHIDAEVEGDTHFPDYEPDDWESVFSEFHDADAQNSHSYCFEILERRGGSGGSGGKLVPKKKRKVGGSQFDILCKTPPKVLVRQFVERFERPSGEKIASCAAELTYLCWMITHNGTAIKRATFMSYNTIISNSLSFDIVNKSLQFKYKTQKATILEASLKKLIPAWEFTIIPYNGQKHQSDITDIVSSLQLQFESSEEADKGNSHSKKMLKALLSEGESIWEITEKILNSFEYTSRFTKTKTLYQFLFLATFINCGRFSDIKNVDPKSFKLVQNKYLGVIIQCLVTETKTSVSRHIYFFSARGRIDPLVYLDEFLRNSEPVLKRVNRTGNSSSNKQEYQLLKDNLVRSYNKALKKNAPYPIFAIKNGPKSHIGRHLMTSFLSMKGLTELTNVVGNWSDKRASAVARTTYTHQITAIPDHYFALVSRYYAYDPISKEMIALGSGSGATNFSLLKQAGDVEENPGPLEKDETNPIEEWQHIEQLKGSAEGSIRYPAWNGIISQEVLDYLSSYINRRIGGSGGSGGMISLIAALAVDYVIGMENAMPWNLPADLAWFKRNTLNKPVIMGRHTWESIGRPLPGRKNIILSSQPSTDDRVTWVKSVDEAIAACGDVPEIMVIGGGRVIEQFLPKAQKLYLTHIDAEVEGDTHFPDYEPDDWESVFSEFHDADAQNSHSYCFEILERR
modifications: MISC_FEATURE - HAtag; DOMAIN 21..179 Degradation Domain; SIGNAL 190..197 Nuclear Localization Signal; MISC_FEATURE - N-terminal side of Flp; MISC_FEATURE - P2A; MISC_FEATURE - C-terminal side of Flp; DOMAIN 656..814 Degradation Domain
With B3, the “background DNA recombination activity in the absence of TMP” value in data set [3] is given as “extremely low background level of DNA recombination activity comparable to a negative control group using the pcDNA3.1 empty vector plasmid”. The “TMP-dependent DNA recombination activity” value in data set [3] (TMP 10 nM or 500 nM) is “extremely high TMP-dependent DNA recombination activity”.

Values taken from patent publication US20240409960A1, “METHOD FOR CONTROLLING PROTEIN FUNCTION” (The University of Tokyo, priority 2021, published 2024).
